Test results from patent publication US20150344570A1 (published 2015).

B1: GpH7-A5/GpH7-B3 variant S298_03V/GpL16-k0 (He Ab) (antibody, human IgG1, kappa)
heavy 1: not shown
heavy 2: not shown
light: DIVMTQSPLSLPVTPGEPASISCQASESLVHSNRNTYLHWYLQKPGQSPQLLIYKVSNRFSGVPDRFSGSGSGTDFTLKISRVEAEDVGVYYCSQNTHVPPTFGQGTKVEIERTVAAPSVFIFPPSDEQLKSGTASVVCLLNNFYPREAKVQWKVDNALQSGNSQESVTEQDSKDSTYSLSSTLTLSKADYEKHKVYACEVTHQGLSSPVTKSFNRGEC
notes: Heterodimerized anti-glypican-3 antibody; the alteration stands only in the GpH7-B3 chain
B2: GpH7-A5/GpH7-B3 variant S324_14T/GpL16-k0 (He Ab) (antibody, human IgG1, kappa)
heavy 1: not shown
heavy 2: not shown
light: B1 light
notes: as for B1
B3: GpH7-A5/GpH7-B3 variant S239_18N/GpL16-k0 (He Ab) (antibody, human IgG1, kappa)
heavy 1: not shown
heavy 2: not shown
light: B1 light
notes: as for B1
B4: GpH7-A5/GpH7-B3 variant S324_09D/GpL16-k0 (He Ab) (antibody, human IgG1, kappa)
heavy 1: not shown
heavy 2: not shown
light: B1 light
notes: as for B1
B5: GpH7-A5/GpH7-B3 variant T335_08L/GpL16-k0 (He Ab) (antibody, human IgG1, kappa)
heavy 1: not shown
heavy 2: not shown
light: B1 light
notes: as for B1
B6: GpH7-B3 variant S324_01G/GpL16-k0 (Ho Ab) (antibody, human IgG1, kappa)
heavy: not shown
light: B1 light
notes: Homodimerized anti-glypican-3 antibody; the alteration stands in both H chains
B7: GpH7-B3 variant S298_03V/GpL16-k0 (Ho Ab) (antibody, human IgG1, kappa)
heavy: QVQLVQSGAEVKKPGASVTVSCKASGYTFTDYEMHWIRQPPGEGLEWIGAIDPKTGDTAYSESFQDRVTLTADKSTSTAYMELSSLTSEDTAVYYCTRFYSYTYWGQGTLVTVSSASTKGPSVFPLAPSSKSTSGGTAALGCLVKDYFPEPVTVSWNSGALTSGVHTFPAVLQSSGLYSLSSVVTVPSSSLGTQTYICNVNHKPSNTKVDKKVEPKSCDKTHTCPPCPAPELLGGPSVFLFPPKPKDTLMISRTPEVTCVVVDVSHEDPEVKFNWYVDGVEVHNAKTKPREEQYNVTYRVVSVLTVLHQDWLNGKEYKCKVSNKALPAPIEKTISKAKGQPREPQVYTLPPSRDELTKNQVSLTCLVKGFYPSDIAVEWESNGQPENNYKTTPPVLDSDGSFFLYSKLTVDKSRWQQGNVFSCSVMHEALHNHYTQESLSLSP
light: B1 light
notes: as for B6
B8: GpH7-B3 variant T335_05P/GpL16-k0 (Ho Ab) (antibody, human IgG1, kappa)
heavy: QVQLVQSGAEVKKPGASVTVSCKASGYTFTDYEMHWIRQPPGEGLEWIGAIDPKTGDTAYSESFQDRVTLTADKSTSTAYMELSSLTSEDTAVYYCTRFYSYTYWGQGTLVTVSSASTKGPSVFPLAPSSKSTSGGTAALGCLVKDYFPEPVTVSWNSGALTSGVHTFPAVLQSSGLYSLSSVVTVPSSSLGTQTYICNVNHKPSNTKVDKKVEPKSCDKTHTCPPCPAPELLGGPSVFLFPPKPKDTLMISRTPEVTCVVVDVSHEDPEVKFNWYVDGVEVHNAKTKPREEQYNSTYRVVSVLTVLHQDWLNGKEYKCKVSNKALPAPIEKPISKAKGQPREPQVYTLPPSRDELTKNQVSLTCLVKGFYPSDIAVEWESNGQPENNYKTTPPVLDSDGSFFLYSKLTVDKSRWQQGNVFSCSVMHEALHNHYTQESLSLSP
light: B1 light
notes: as for B6
B9: GpH7-B3 variant S239_10E/GpL16-k0 (Ho Ab) (antibody, human IgG1, kappa)
heavy: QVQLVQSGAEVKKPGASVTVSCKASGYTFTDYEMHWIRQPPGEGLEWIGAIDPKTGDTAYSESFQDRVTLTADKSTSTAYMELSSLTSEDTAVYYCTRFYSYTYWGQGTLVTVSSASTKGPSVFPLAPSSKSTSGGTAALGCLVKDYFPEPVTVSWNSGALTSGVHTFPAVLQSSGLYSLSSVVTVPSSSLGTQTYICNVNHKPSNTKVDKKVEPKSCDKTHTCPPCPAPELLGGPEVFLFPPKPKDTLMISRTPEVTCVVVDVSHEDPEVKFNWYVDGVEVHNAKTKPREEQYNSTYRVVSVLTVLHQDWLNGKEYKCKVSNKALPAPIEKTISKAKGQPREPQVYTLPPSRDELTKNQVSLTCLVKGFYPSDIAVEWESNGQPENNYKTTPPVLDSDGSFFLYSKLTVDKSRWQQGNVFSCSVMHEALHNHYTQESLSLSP
light: B1 light
notes: Homodimerized anti-glypican-3 antibody; the alteration stands in both H chains (GpH7-B3 = GpH7-G1d with K439E)
B10: GpH7-B3 variant S337_01G/GpL16-k0 (Ho Ab) (antibody, human IgG1, kappa)
heavy: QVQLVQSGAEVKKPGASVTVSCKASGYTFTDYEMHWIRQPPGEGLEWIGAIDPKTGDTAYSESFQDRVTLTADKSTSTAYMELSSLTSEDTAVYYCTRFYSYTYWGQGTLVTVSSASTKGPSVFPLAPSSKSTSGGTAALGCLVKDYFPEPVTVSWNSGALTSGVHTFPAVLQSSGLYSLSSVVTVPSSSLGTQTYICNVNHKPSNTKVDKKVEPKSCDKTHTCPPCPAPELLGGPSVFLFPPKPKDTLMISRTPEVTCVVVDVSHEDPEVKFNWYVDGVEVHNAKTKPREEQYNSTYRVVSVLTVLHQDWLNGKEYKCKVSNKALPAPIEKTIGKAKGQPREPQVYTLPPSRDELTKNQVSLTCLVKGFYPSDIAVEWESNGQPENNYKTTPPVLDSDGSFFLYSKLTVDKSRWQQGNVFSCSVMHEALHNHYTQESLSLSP
light: B1 light
notes: as for B6
B11: GpH7-B3 variant S324_06M/GpL16-k0 (Ho Ab) (antibody, human IgG1, kappa)
heavy: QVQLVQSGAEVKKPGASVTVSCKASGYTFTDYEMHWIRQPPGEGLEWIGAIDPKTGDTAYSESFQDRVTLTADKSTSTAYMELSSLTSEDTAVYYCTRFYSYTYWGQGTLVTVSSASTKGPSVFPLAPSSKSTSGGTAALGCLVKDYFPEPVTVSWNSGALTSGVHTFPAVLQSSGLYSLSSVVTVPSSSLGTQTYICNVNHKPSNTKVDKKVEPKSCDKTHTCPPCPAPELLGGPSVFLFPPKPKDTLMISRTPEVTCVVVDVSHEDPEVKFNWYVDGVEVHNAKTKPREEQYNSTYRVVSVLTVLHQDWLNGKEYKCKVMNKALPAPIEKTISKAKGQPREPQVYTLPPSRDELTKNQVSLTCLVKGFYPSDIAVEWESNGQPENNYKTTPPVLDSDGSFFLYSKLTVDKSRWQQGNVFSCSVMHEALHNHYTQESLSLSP
light: B1 light
notes: as for B6
B12: GpH7-B3 variant S324_14T/GpL16-k0 (Ho Ab) (antibody, human IgG1, kappa)
heavy: not shown
light: B1 light
notes: as for B6
B13: GpH7-B3 variant S324_20W/GpL16-k0 (Ho Ab) (antibody, human IgG1, kappa)
heavy: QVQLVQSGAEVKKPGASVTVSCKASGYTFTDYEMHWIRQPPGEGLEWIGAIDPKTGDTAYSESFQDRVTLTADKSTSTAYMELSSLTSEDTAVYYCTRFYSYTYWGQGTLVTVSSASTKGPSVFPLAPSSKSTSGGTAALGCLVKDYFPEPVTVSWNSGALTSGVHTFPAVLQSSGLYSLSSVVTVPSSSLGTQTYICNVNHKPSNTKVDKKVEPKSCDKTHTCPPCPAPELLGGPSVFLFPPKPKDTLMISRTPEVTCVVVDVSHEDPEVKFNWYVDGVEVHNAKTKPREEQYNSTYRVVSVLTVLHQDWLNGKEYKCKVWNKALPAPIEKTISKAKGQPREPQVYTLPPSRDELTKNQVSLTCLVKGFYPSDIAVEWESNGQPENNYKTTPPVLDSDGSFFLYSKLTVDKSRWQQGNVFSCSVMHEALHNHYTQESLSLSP
light: B1 light
notes: as for B6
B14: GpH7-B3 variant S239_18N/GpL16-k0 (Ho Ab) (antibody, human IgG1, kappa)
heavy: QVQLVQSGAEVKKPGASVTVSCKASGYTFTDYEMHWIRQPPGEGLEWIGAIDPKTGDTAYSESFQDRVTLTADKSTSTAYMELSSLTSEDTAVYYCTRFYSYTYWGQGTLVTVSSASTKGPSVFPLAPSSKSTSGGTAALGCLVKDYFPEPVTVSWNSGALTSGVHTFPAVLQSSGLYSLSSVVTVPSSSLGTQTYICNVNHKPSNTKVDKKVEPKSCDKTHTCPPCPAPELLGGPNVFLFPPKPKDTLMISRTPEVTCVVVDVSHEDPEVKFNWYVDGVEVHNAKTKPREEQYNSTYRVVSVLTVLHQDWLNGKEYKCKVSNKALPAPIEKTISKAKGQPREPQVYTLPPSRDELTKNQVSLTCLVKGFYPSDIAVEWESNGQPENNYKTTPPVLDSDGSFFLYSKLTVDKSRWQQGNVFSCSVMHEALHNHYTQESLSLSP
light: B1 light
notes: as for B6
B15: GpH7-B3 variant S324_09D/GpL16-k0 (Ho Ab) (antibody, human IgG1, kappa)
heavy: not shown
light: B1 light
notes: as for B6
B16: GpH7-B3 variant S337_16H/GpL16-k0 (Ho Ab) (antibody, human IgG1, kappa)
heavy: not shown
light: B1 light
notes: as for B6
B17: GpH7-B3 variant T335_09D/GpL16-k0 (Ho Ab) (antibody, human IgG1, kappa)
heavy: not shown
light: B1 light
notes: as for B6
B18: GpH7-B3 variant T335_08L/GpL16-k0 (Ho Ab) (antibody, human IgG1, kappa)
heavy: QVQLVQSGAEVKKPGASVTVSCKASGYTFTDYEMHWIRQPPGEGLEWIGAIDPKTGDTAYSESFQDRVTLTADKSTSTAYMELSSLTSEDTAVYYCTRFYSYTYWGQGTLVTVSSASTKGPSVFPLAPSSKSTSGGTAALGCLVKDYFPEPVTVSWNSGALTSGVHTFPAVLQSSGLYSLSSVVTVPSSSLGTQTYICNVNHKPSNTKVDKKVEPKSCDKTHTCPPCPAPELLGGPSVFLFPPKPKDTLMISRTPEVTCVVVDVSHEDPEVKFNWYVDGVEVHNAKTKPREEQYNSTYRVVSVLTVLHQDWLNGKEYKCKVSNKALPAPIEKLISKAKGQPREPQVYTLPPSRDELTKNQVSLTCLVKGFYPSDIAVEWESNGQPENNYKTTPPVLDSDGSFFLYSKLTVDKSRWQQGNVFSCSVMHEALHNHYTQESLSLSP
light: B1 light
notes: as for B6
B19: GpH7-B3 variant Y300_08L/GpL16-k0 (Ho Ab) (antibody, human IgG1, kappa)
heavy: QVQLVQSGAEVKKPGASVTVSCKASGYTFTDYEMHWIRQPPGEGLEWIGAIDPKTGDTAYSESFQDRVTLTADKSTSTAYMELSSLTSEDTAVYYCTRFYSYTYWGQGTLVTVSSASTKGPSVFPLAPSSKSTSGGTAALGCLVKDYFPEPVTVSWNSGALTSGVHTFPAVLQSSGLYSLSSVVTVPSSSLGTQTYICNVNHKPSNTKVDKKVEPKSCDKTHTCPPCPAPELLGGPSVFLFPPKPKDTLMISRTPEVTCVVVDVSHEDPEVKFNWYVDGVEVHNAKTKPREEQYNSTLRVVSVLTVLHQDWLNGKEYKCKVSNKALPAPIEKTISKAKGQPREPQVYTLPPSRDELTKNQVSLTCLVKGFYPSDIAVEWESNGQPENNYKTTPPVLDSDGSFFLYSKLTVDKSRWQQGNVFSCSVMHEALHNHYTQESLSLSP
light: B1 light
notes: as for B6
B20: GpH7-B3 variant Y296_20W/GpL16-k0 (Ho Ab) (antibody, human IgG1, kappa)
heavy: not shown
light: B1 light
notes: as for B6
B21: GpH7-B3 variant T335_06M/GpL16-k0 (Ho Ab) (antibody, human IgG1, kappa)
heavy: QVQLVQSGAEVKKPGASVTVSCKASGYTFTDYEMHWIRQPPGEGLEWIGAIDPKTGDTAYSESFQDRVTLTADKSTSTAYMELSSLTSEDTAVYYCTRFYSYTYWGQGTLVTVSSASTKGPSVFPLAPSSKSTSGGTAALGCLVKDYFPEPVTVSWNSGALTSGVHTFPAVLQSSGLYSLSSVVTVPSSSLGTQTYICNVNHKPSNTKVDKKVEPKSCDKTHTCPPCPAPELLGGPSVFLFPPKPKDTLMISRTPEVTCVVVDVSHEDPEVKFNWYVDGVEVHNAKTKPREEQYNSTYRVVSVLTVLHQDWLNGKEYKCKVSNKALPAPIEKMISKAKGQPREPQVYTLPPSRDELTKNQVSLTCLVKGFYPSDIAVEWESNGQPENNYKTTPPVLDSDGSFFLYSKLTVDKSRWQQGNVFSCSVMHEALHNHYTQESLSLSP
light: B1 light
notes: as for B6

target: T1, FcγRIIIa (human, UniProt P08637 17-208); assay: SPR (Biacore), antibody captured on antigen-peptide chip, FcγR as analyte; binding of He Ab / binding of HeCon Ab GpH7-A5/GpH7-B3/GpL16-k0 x 100
T1 construct: extracellular domain; also called 3a; FcgRIIIa
T1 sequence (P08637 17-208): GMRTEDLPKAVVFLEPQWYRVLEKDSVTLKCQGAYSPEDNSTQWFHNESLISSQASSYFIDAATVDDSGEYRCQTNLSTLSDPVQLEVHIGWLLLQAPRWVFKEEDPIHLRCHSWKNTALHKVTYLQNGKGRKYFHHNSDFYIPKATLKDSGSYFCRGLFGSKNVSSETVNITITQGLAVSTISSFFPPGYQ

| He/Con_3a | Binder |
| --- | --- |
| 109 relative to control = 100 | B1 |
| 103 relative to control = 100 | B2 |
| 110 relative to control = 100 | B3 |
| 101 relative to control = 100 | B4 |
| 102 relative to control = 100 | B5 |

target: T1, FcγRIIIa; assay: SPR (Biacore), antibody captured on antigen-peptide chip, FcγR as analyte; binding of Ho Ab / binding of HoCon Ab GpH7-B3/GpL16-k0 x 100
Description: Analysis of interaction between objective antibody and the FcγR was carried out using Biacore T100 (GE Healthcare). HBS-EP+ (GE Healthcare) was used as the running buffer, and the measurement temperature was set to 25° C. Chips produced by immobilizing the antigen peptide by the amine coupling method to a Series S Sencor Chip CM5 (GE Healthcare), or alternatively, chips produced by allowing preliminarily biotinylated antigen peptides to interact with and immobilize onto a Series S Sensor Chip SA (certified) (GE Healthcare) were used. Antibodies of interest were captured onto an antigen peptide-immobilized chip, and allowed to interact to each FcγR diluted with running buffer. To regenerate and repeatedly use the chip, the antibodies captured on the chip were washed off by reacting 10 mM glycine-HCl, pH 1.5.

| Ho/Con_3a | Binder |
| --- | --- |
| 119 relative to control = 100 | B6 |
| 110 relative to control = 100 | B7 |
| 119 relative to control = 100 | B8 |
| 252 relative to control = 100 | B9 |
| 108 relative to control = 100 | B10 |
| 114 relative to control = 100 | B11 |
| 108 relative to control = 100 | B12 |
| 102 relative to control = 100 | B13 |
| 116 relative to control = 100 | B14 |
| 101 relative to control = 100 | B15 |
| 112 relative to control = 100 | B16 |
| 114 relative to control = 100 | B17 |
| 103 relative to control = 100 | B18 |
| 105 relative to control = 100 | B19 |
| 146 relative to control = 100 | B20 |
| 107 relative to control = 100 | B21 |
